Changes are numbered by the printed parent chain.
T1: AOS1/UBA2, heterodimeric SUMO E1 activating enzyme, recombinant (human, UniProt Q9UBE0 1-346; Q9UBT2 1-640)
T1 construct: expressed from pET11d-UBA2; The N-terminal end of the His tag follows from the printed offset of +23 aa; also called SAE1/SAE2; not shown: 6His, N-terminal, kept
T1 sequence (looked up) 1: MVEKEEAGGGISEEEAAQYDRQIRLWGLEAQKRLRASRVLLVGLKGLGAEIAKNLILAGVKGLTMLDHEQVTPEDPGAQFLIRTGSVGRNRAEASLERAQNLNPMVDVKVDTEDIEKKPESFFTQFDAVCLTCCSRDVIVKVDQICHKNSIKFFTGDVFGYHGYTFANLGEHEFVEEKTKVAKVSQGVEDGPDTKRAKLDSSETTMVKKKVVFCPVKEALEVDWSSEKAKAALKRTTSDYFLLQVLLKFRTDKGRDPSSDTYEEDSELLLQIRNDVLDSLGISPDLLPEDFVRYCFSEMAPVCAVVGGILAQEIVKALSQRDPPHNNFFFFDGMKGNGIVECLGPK
T1 sequence (looked up) 2: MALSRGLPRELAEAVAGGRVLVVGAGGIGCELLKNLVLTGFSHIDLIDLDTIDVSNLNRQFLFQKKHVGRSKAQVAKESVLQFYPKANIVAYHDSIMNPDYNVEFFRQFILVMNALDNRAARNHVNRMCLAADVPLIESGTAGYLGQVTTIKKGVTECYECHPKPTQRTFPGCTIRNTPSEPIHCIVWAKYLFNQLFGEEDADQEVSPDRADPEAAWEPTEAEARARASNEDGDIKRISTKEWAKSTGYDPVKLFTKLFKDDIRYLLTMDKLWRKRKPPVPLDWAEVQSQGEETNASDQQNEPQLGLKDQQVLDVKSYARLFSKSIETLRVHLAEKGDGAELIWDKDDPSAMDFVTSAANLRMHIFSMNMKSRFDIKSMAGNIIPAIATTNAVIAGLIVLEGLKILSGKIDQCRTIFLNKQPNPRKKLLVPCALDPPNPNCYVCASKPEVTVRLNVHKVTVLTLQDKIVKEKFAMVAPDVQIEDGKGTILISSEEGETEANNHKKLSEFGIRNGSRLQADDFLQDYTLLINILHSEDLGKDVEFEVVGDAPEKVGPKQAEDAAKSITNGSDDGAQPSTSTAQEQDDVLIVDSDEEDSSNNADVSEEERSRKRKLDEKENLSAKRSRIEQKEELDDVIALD

B1: GST-FAT10 (natural protein, human, UniProt O15205 1-165, looked up)
chain: MAPNASCLCVHVRSEEWDLMTFDANPYDSVKKIKEHVRSKTKVPVQDQVLLLGSKILKPRRSLSSYGIDKEKTIHLTLKVVKPSDEELPLFLVESGDEAKRHLLQVRRSSSVAQVKAMIETKTGIIPETQIVTCNGKRLEDGKMMADYGIRKGNLLFLACYCIGG
notes: FAT10 (ubiquitin D, UBD), human; also called FAT10 (in the sentence that gives the Kd); source: E. coli BL21(DE3) (pGEX4T-3-FAT10), purified (glutathione agarose, PD-10 desalting)
B2: FAT10, recombinant, untagged (natural protein, human, UniProt O15205 2-165, looked up)
chain: APNASCLCVHVRSEEWDLMTFDANPYDSVKKIKEHVRSKTKVPVQDQVLLLGSKILKPRRSLSSYGIDKEKTIHLTLKVVKPSDEELPLFLVESGDEAKRHLLQVRRSSSVAQVKAMIETKTGIIPETQIVTCNGKRLEDGKMMADYGIRKGNLLFLACYCIGG
notes: FAT10 (ubiquitin D, UBD), human; also called wild-type FAT10; source: E. coli BL21(DE3) (pSUMO-FAT10), purified (HisTrap, tag removal with ULP-1, cation exchange)
B3: FAT10-AV, recombinant, untagged (natural protein, human, UniProt O15205 2-165, looked up)
chain: B2 chain with G163A, G164V
notes: FAT10 (ubiquitin D, UBD), human, C-terminal diglycine motif changed from GG to AV; also called FAT10 diglycine mutant FAT10-AV; source: E. coli BL21(DE3) (pSUMO-FAT10-AV), purified (HisTrap, tag removal with ULP-1, cation exchange)

Experiments:
[1] = target: T1, AOS1/UBA2, heterodimeric SUMO E1 …; experiment: BLI; Octet (Forte Bio); sensors loaded with 0.1 mg/ml AOS1/UBA2; GST-FAT10 at 0.5, 0.25, 0.1 and 0.05 mg/ml measured versus GST; buffer TNT (50 mM Tris HCl pH 7.6, 100 mM NaCl, 0.1% Triton X-100); association 600 s, dissociation 600 s; conditions: both partners purified
[2] = target: T1, AOS1/UBA2, heterodimeric SUMO E1 …; experiment: co-IP; recombinant proteins: 25 nM AOS1/UBA2 with 0.7 uM of each FAT10 variant in in vitro buffer without ATP; FAT10 precipitated with the antibody 4F1 on protein A sepharose, 3 h at 8 °C; blots for the E1 subunits; conditions: both partners purified

Row | Binder | Kd [1] [nM] | binding result [2]
1 | B1 | 1800 | 
2 | B2 |  | binds
3 | B3 |  | binds
